The values that follow come from US12269880B2, “LAG3 binding peptides” (Leidos, Inc., priority 2019, dated 2025).

Several values for one entry are separate records, joined by “and”; a condition that tells them apart may be missing. Equal entries are not always repeated.

One assay addresses T1, LAG3/MHC-II interaction (Homo sapiens, UniProt P18627).
T1 construct: purchased Cisbio US Inc
T1 sequence (P18627 23-450 limits assumed): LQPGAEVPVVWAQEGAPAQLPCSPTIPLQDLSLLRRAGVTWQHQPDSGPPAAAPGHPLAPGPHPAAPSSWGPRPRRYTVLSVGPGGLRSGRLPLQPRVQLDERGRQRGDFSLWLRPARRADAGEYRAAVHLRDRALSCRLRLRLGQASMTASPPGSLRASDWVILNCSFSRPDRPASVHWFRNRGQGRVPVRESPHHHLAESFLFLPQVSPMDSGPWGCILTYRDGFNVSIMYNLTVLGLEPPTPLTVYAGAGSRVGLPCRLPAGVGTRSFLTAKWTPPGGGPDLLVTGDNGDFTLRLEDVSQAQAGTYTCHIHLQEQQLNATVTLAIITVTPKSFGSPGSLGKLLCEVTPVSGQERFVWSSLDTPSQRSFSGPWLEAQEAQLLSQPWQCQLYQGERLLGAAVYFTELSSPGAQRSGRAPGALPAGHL
Briefly: HTRF LAG3/MHC-II binding assay (Cisbio). An excerpt: FIG. 2 is a graph showing the results of a homogeneous time-resolved fluorescence (HTRF) assay for peptide LAG3-11. Reference Ab-LAG3 is an anti-LAG3 antibody. OVA, the ovalbumin (OVA) peptide (ISQAVHAAHAEINEAGR, SEQ ID NO:8). “HTRF ratio” is the emission at 665 nm (acceptor)/emission at 620 nm (donor) multiplied by a factor or 10^4.
A homogeneous time-resolved fluorescence (HTRF) LAG3/MHC-II binding assay (Cisbio US Inc.) was used to measure the interaction between MHC-II and LAG3 in the presence of peptides. In this assay, the interaction between Tag1-LAG3 and Tag2-MHC-II is detected by using anti-Tag1-Terbium (HTRF donor) and anti-Tag2-XL665 (HTRF acceptor). When the donor and acceptor antibodies are brought into close proximity due to LAG3 and MHC-II binding, excitation of the donor antibody triggers fluorescent resonance energy transfer (FRET) towards the acceptor antibody, which in turn emits specifically at 665 nm. This specific signal is directly proportional to the extent of LAG3/MHC-II interaction. Thus, an agent that blocks the interaction between LAG3 and MHC-II will cause a reduction in HTRF ratio.
An anti-human LAG3 antibody (Novoprotein #GMP-A092, Lot 0331158, 500 nM) was tested in the assay at an eleven-point, serially diluted semi-log dose response curve starting at 100 nM and served as a positive control. The ovalbumin peptide was used as a negative control. Peptides were reconstituted at a concentration of 20 mM in […] and tested at an eleven-point dose response curve starting at 100 µM followed by 4-fold dilutions. […]

For assay [1], the target named is T2, soluble recombinant human LAG3 (Homo sapiens, UniProt P18627).
T2 construct: soluble recombinant human LAG3
T2 sequence (P18627 23-450 limits assumed): T1 sequence (P18627 23-450 limits assumed)
Nature of the assay: Clonal phage ELISA after phage display bio-panning. The format is binding. The following applies: for Clonal Phase ELISA uncoated signal: uncoated (background). The source says: The TriCo-20™, TriCo-16™, Ph.D.-12™, and Ph.D. C7™ Phage Display Peptide Libraries (Creative Biolabs, 45-1 Ramsey Road, Shirley, NY 11967) were screened by performing several rounds of bio-panning to identify binders of soluble recombinant human LAG3.

Where [2] appears, read: LOG [Compound] M tested for peptide −4, single replicates.
The mark [3] stands for this setting: LOG [Compound] M tested for peptide −4.60206, single replicates.
[4] abbreviates: LOG [Compound] M tested for peptide −5.20412, single replicates.
The mark [5] stands for this setting: LOG [Compound] M tested for peptide −5.80618, single replicates.
[6] abbreviates: LOG [Compound] M tested for peptide −6.40824.
Where [7] appears, read: LOG [Compound] M tested for peptide −7.0103, single replicates.
Setting [8] is: LOG [Compound] M tested for peptide −7.61236, single replicates.
Where [9] appears, read: LOG [Compound] M tested for peptide −8.21442, single replicates.
[10] abbreviates: LOG [Compound] M tested for peptide −8.81648, single replicates.
[11] abbreviates: LOG [Compound] M tested for peptide −9.41854, single replicates.
Where [12] appears, read: LOG [Compound] M tested for peptide −10.0206.
Where [13] appears, read: LOG [Compound] M tested for peptide −10.6227.

For FYSPNHEEYHDWNVDSSVNE (LAG3-48 peptide), the HTRF ratio is 3507 and 2809 and 3028 with LAG3/MHC-II interaction (setting [2]); 5662 and 5088 and 5724 with LAG3/MHC-II interaction (setting [3]); 8301 and 8213 and 8200 with LAG3/MHC-II interaction (setting [4]); 8663 and 9082 and 9045 in the assay with LAG3/MHC-II interaction (setting [5]); 9264 and 9194 and 9135 in the assay with LAG3/MHC-II interaction (setting [6]); 8727 and 9103 and 9142 in the assay with LAG3/MHC-II interaction (setting [7]). For the same sequence, the HTRF ratio with LAG3/MHC-II interaction (setting [8]) was 8936 and 9357 and 9297; with LAG3/MHC-II interaction (setting [9]), 9082 and 9139 and 9095; with LAG3/MHC-II interaction (setting [10]) it was 8708 and 9153 and 8757; in the assay with LAG3/MHC-II interaction (setting [11]) it was 8564 and 8922 and 8442; with LAG3/MHC-II interaction (setting [12]), 8765 and 9097 and 8602; with LAG3/MHC-II interaction (setting [13]) it was 8663 and 8904 and 9303. Besides, in assay [1], the “Clonal Phase ELISA coated signal” value is given as 0.227. The “Clonal Phase ELISA uncoated signal” value in assay [1] is recorded as 0.094.

Consider KVWQVPQDTQHWLSPNFYSV (LAG3-51 peptide), for which the HTRF ratio was 3058 and 2773 and 2875 with LAG3/MHC-II interaction (setting [2]); 6649 and 6521 and 6468 with LAG3/MHC-II interaction (setting [3]); 7908 and 8071 and 8322 with LAG3/MHC-II interaction (setting [4]); 8723 and 8946 and 8748 with LAG3/MHC-II interaction (setting [5]); 9265 and 8583 and 8662 in the assay with LAG3/MHC-II interaction (setting [6]); 8098 and 9193 and 9017 with LAG3/MHC-II interaction (setting [7]). Besides, the HTRF ratio with LAG3/MHC-II interaction (setting [8]) is 8762 and 9360 and 9173; in the assay with LAG3/MHC-II interaction (setting [9]), 8950 and 8608 and 8357; with LAG3/MHC-II interaction (setting [10]) it was 8834 and 8187 and 8957; with LAG3/MHC-II interaction (setting [11]), 8867 and 8809 and 8630; with LAG3/MHC-II interaction (setting [12]), 8784 and 8779 and 8696; with LAG3/MHC-II interaction (setting [13]) it was 9082 and 9104 and 9298. In addition, in assay [1], the “Clonal Phase ELISA coated signal” value was found to be 0.234. Also, the “Clonal Phase ELISA uncoated signal” value in assay [1] came out at 0.076.

Regarding ACGPGSFGDCGGG (LAG3-54 peptide), the HTRF ratio with LAG3/MHC-II interaction (setting [2]) was 2283 and 4122 and 3912; with LAG3/MHC-II interaction (setting [3]), 7055 and 6709 and 6833; in the assay with LAG3/MHC-II interaction (setting [4]), 8691 and 8561 and 8512; in the assay with LAG3/MHC-II interaction (setting [5]), 9156 and 9205 and 9142; in the assay with LAG3/MHC-II interaction (setting [6]) it was 9161 and 9048 and 8773; in the assay with LAG3/MHC-II interaction (setting [7]), 9105 and 9141 and 9004. The HTRF ratio with LAG3/MHC-II interaction (setting [8]) is 8674 and 9031 and 9075; with LAG3/MHC-II interaction (setting [9]) it was 8996 and 8645 and 8867; with LAG3/MHC-II interaction (setting [10]) it was 8130 and 8918 and 8630; with LAG3/MHC-II interaction (setting [11]), 8942 and 8930 and 8755; with LAG3/MHC-II interaction (setting [12]) it was 8344 and 9203 and 8748; with LAG3/MHC-II interaction (setting [13]) it was 9100 and 9262 and 8921. Further, the “Clonal Phase ELISA coated signal” value in assay [1] amounted to 0.417. The “Clonal Phase ELISA uncoated signal” value in assay [1] stood at 0.103.
